Assay results reported in patent publication US20040059519A1.
“And” between values parts separate entries of the source, which are not always exact repeats. Equal values may be shown once.

How the values were obtained:
[1] = target: Human chorionic gonadotropin (human) (UniProt P01215); assay: multiplex sandwich, MAB602 capture beads; hCG 1000 ng/mL, no wash
[2] = target: Human chorionic gonadotropin (human) (UniProt P01215); assay: MAB602 capture beads, flow cytometry; hCG 100.0 ng/mL, anti-hCG probe
[3] = target: Human chorionic gonadotropin (human) (UniProt P01215); assay: multiplex sandwich, MAB602 capture beads; hCG 0.5 ng/mL, no wash
[4] = target: Human chorionic gonadotropin (human) (UniProt P01215); assay: multiplex no-wash sandwich, MAB602 beads; Negative serum, hCG 10 mU/mL as printed
[5] = target: Human chorionic gonadotropin (human) (UniProt P01215); assay: multiplex sandwich, MAB602 capture beads; hCG 250 ng/mL, no wash
[6] = target: Human chorionic gonadotropin (human) (UniProt P01215); assay: multiplex sandwich, MAB602 capture beads; hCG 8 ng/mL, no wash
[7] = target: Human chorionic gonadotropin (human) (UniProt P01215); assay: MAB602 capture beads, flow cytometry; hCG 0.0 ng/mL, anti-hCG probe
[8] = target: Human chorionic gonadotropin (human) (UniProt P01215); assay: multiplex no-wash sandwich, MAB602 beads; serum Level 3D, hCG 218 mU/mL
[9] = target: Human chorionic gonadotropin (human) (UniProt P01215); assay: multiplex sandwich, MAB602 capture beads; hCG 500 ng/mL, washed
[10] = target: Human chorionic gonadotropin (human) (UniProt P01215); assay: sandwich, MAB602 capture beads, flow cytometry; hCG 0.002 ng/mL
Alpha fetoprotein [11] = target: Alpha fetoprotein (UniProt P02771); assay: multiplex sandwich, S10473 capture beads; AFP 16 ng/mL, no wash
UniProt P02771, sequence (P02771 19-609 limits assumed): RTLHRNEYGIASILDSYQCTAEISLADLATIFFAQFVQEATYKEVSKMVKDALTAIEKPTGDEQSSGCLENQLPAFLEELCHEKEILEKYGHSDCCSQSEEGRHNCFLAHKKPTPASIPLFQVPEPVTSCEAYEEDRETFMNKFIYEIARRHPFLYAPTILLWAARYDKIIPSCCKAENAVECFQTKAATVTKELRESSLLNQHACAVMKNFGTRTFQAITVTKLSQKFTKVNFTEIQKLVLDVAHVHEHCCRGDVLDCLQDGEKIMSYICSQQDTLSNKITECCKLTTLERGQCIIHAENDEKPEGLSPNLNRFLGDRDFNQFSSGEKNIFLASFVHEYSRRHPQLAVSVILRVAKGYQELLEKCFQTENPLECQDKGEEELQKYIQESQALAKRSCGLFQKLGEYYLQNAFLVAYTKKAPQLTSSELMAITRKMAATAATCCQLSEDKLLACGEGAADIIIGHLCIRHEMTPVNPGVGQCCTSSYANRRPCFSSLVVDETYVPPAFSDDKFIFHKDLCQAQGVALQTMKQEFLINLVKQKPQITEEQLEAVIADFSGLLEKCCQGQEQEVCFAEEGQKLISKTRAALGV

[12] = target: Human chorionic gonadotropin (human) (UniProt P01215); assay: MAB602 capture beads, flow cytometry; hCG 1000.0 ng/mL, anti-AFP probe
Alpha fetoprotein [13] = target: Alpha fetoprotein (UniProt P02771); assay: multiplex sandwich, S10473 capture beads; AFP 500 ng/mL, washed
[14] = target: Human chorionic gonadotropin (human) (UniProt P01215); assay: MAB602 capture beads, flow cytometry; hCG 100.0 ng/mL, anti-AFP probe
Alpha fetoprotein [15] = target: Alpha fetoprotein (UniProt P02771); assay: multiplex sandwich, S10473 capture beads; AFP 2 ng/mL, washed
Alpha fetoprotein [16] = target: Alpha fetoprotein (UniProt P02771); assay: anti-AFP capture beads, flow cytometry; AFP 1000.0 ng/mL, anti-AFP probe
Alpha fetoprotein [17] = target: Alpha fetoprotein (UniProt P02771); assay: multiplex sandwich, S10473 capture beads; AFP 31 ng/mL, washed
[18] = target: Human chorionic gonadotropin (human) (UniProt P01215); assay: anti-AFP capture beads, flow cytometry; hCG 0.0 ng/mL, anti-AFP probe
Alpha fetoprotein [19] = target: Alpha fetoprotein (UniProt P02771); assay: multiplex sandwich, S10473 capture beads; AFP 0.25 ng/mL, washed
Alpha fetoprotein [20] = target: Alpha fetoprotein (UniProt P02771); assay: anti-AFP capture beads, flow cytometry; AFP 100.0 ng/mL, anti-AFP probe
Alpha fetoprotein [21] = target: Alpha fetoprotein (UniProt P02771); assay: multiplex sandwich, S10473 capture beads; AFP 2 ng/mL, no wash
Alpha fetoprotein [22] = target: Alpha fetoprotein (UniProt P02771); assay: anti-AFP capture beads, flow cytometry; AFP 1.0 ng/mL, anti-AFP probe
Peptide 8 …-biotin [23] = assay: multiplex peptide beads, flow cytometry; antibody pre-mixed with soluble HYGSLPQK 10 ug/mL (competitor m18)
Peptide 7 …-biotin [24] = assay: as above
[25] = target: Peptide 5 …-biotin (human); assay: as above
Peptide 6 …-biotin [26] = assay: as above
Peptide 3 …-biotin [27] = assay: as above
Peptide 9 …-biotin [28] = assay: as above
Peptide 1 …-biotin [29] = assay: as above
Peptide 4 …-biotin [30] = assay: as above
Peptide 2 …-biotin [31] = assay: as above
[32] = target: Neutravidin (deglycosylated avidin) (UniProt P02701); assay: multiplex, Neutravidin bead 60/70 without peptide, flow cytometry
UniProt P02701, sequence (P02701 25-152 limits assumed): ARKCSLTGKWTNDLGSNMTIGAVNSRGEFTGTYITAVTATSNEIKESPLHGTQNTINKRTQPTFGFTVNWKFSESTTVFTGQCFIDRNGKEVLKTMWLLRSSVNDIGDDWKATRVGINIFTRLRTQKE

Peptide 8 …-biotin [33] = assay: multiplex peptide beads, flow cytometry; beads pre-incubated with free biotin 10 ug/mL
Peptide 7 …-biotin [34] = assay: as above
[35] = target: Peptide 5 …-biotin (human); assay: as above
Peptide 6 …-biotin [36] = assay: as above
Peptide 3 …-biotin [37] = assay: as above
Peptide 9 …-biotin [38] = assay: as above
Peptide 1 …-biotin [39] = assay: as above
Peptide 4 …-biotin [40] = assay: as above
Peptide 2 …-biotin [41] = assay: as above

UniProt P01215, sequence (P01215 25-116, chain 1 of 2, other chains not shown): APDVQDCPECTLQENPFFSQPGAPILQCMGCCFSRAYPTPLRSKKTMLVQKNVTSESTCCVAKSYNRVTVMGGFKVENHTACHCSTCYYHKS

“AB633 affinity purified polyclonal anti-hCG antibody, Bodipy FL-CASE labeled” was tested, and the MIF of Fm [1] was 770, the MIF of Fm [2] was 761 and the MIF of Fm [3] was 166. The MIF AVG [4] was 7.33, the MIF of FL1 [4] was 8 and 7 and the MIF of Fm [5] was 1520. It also gave an MIF of Fm [6] of 1760, an MIF of Fm [7] of 48 and an MIF AVG [8] of 272. The MIF of FL1 [8] was 268 and 276 and 271, the MIF of Fm [9] was 3340 and the MIF of Fm [10] was 122 and 121.

With “M20077 affinity purified polyclonal anti-AFP antibody, Bodipy FL-CASE labeled” the MIF of Fm (Alpha fetoprotein [11]) was 359, the MIF of Fm [12] was 47 and the MIF of Fm (Alpha fetoprotein [13]) was 1380. For the same substance, the MIF of Fm [14] was 48, the MIF of Fm (Alpha fetoprotein [15]) was 59 and the MIF of Fm (Alpha fetoprotein [16]) was 348. The MIF of Fm (Alpha fetoprotein [17]) was 612, the MIF of Fm [18] was 45 and the MIF of Fm (Alpha fetoprotein [19]) was 24. For the same substance, the MIF of Fm (Alpha fetoprotein [20]) was 356, the MIF of Fm (Alpha fetoprotein [21]) was 51 and the MIF of Fm (Alpha fetoprotein [22]) was 98.

MAB 384, Bodipy FL-X labeled (antibody) gave an MIF of Fm (Peptide 8 …-biotin [23]) of 9, an MIF of Fm (Peptide 7 …-biotin [24]) of 11 and an MIF of Fm [25] of 53. The MIF of Fm (Peptide 6 …-biotin [26]) was 15, the MIF of Fm (Peptide 3 …-biotin [27]) was 12 and the MIF of Fm (Peptide 9 …-biotin [28]) was 17. It also gave an MIF of Fm (Peptide 1 …-biotin [29]) of 4, an MIF of Fm (Peptide 4 …-biotin [30]) of 13 and an MIF of Fm (Peptide 2 …-biotin [31]) of 7. It also gave an MIF of Fm [32] of 36, an MIF (Peptide 8 …-biotin [33]) of 34 and an MIF (Peptide 7 …-biotin [34]) of 23. For the same substance, the MIF [35] was 1020, the MIF (Peptide 6 …-biotin [36]) was 20 and the MIF (Peptide 3 …-biotin [37]) was 22. For the same substance, the MIF (Peptide 9 …-biotin [38]) was 36, the MIF (Peptide 1 …-biotin [39]) was 17 and the MIF (Peptide 4 …-biotin [40]) was 26. It also gave an MIF (Peptide 2 …-biotin [41]) of 19.
